# In US20120316071A1 (published 2012):
# T1: rHuman Erythropoietin R/Fc Chimera, CF (R&D Systems Cat#963-ER) (human, UniProt P19235 25-250)
# T1 construct: Bought recombinant Fc chimera; also called EPO R; EPO R/Fc; Fc part of the bought chimera not given
# T1 sequence (looked up): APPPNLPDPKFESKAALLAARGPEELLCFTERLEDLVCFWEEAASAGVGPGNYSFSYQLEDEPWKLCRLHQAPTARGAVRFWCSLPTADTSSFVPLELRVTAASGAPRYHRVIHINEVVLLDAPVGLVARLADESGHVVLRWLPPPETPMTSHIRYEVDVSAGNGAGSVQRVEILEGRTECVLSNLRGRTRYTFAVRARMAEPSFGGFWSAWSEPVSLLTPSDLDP
# T2: rHuman Erythropoietin R/Fc Chimera, CF (human, UniProt P19235 25-250)
# T2 construct: Bought from R&D Systems; also called EPO R; EPO R/Fc; not shown: Fc of the bought chimera
# T2 sequence (looked up): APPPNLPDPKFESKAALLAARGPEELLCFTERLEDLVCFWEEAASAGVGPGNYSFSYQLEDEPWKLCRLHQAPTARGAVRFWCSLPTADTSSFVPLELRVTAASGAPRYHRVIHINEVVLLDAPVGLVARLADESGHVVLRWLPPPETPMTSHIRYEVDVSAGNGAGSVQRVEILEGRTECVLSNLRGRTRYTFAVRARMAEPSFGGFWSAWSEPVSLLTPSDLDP
# Tests used:
# [1] = target: T3, Recombinant Human DLL4 (R&D Systems Cat#1506-D4/CF) (human, UniProt Q9NR61 27-524); assay: ECL multispot (MSD) assay, antigen spotted on plate, 10 nM Fab;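 note: bound Fab detected with a TAG-labelled detection antibody (1 h, 20 °C), electrochemiluminescence read and compared with each well's blank, signal/blank of 4 or above scored as hit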
# T3 construct: Bought recombinant protein; also called delta-like protein 4; rHuman DLL4
# [2] = target: T4, rHuman EGF R/Fc Chimera, CF (R&D Systems Cat#344-ER) (human, UniProt P00533 25-645); assay: as above
# T4 construct: Bought recombinant Fc chimera; also called epidermal growth factor receptor; Fc part of the bought chimera not given
# [3] = target: T5, rHuman ErbB2/Fc Chimera, CF (R&D Systems Cat#1129-ER) (human, UniProt P04626 23-652); assay: as above
# T5 construct: Bought recombinant Fc chimera; also called human epidermal growth factor 2 receptor; Fc part of the bought chimera not given
# [4] = target: T6, rHuman CD44/Fc Chimera, CF (R&D Systems Cat#3660-CD) (human, UniProt P16070 21-220); assay: as above
# T6 construct: Bought recombinant Fc chimera; Fc part of the bought chimera not given
# [5] = target: T7, rHuman HGF R/c-MET/Fc Chimera, CF (R&D Systems Cat#358-MT/CF) (human, UniProt P08581 25-932); assay: as above
# T7 construct: Bought recombinant Fc chimera; also called HGF R/Fc; hepatocyte growth factor receptor; Fc part of the bought chimera not given
# [6] = target: T1, rHuman Erythropoietin R/Fc Chimera, CF …; assay: as above
# [7] = target: T8, rHuman Notch-1/Fc Chimera, CF (R&D Systems Cat#3647-TK) (human, UniProt P46531 19-526); assay: as above
# T8 construct: Bought recombinant Fc chimera; Fc part of the bought chimera not given
# [8] = target: T9, rHuman IGF-1 sR, CF (R&D Systems Cat#391-GR) (human, UniProt P08069 31-932); assay: as above
# T9 construct: Bought soluble receptor; also called insulin-like growth factor-1 soluble receptor
# [9] = target: T10, rHuman P-Cadherin/Fc Chimera, CF (R&D Systems Cat#861-PC) (human, UniProt P22223 108-654); assay: as above
# T10 construct: Bought recombinant Fc chimera; Fc part of the bought chimera not given
# [10] = target: T11, rHuman P-Cadherin/Fc Chimera, CF (human, UniProt P22223 108-654); assay: ECL Multispot (MSD) assay; antigen spotted on plate, Fab in solution;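 note: fab bound 1 h at 20 °C, detected by TAG-labelled antibody electrochemiluminescence, signal relative to each well's blank, ratio of 4 or more marks a hit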
# T11 construct: Bought from R&D Systems; not shown: Fc of the bought chimera
# [11] = target: T12, rHuman Notch-1/Fc Chimera, CF (human, UniProt P46531 19-526); assay: as above
# T12 construct: Bought from R&D Systems; not shown: Fc of the bought chimera
# Recombinant Human DLL4 = target: T13, Recombinant Human DLL4 (human, UniProt Q9NR61 27-524); assay: as above
# T13 construct: Bought from R&D Systems; also called delta-like protein 4; rHuman DLL4
# [12] = target: T14, rHuman HGF R/c-MET/Fc Chimera, CF (human, UniProt P08581 25-932); assay: as above
# T14 construct: Bought from R&D Systems; also called HGF R/Fc; hepatocyte growth factor receptor; not shown: Fc of the bought chimera
# [13] = target: T15, rHuman CD44/Fc Chimera, CF (human, UniProt P16070 21-220); assay: as above
# T15 construct: Bought from R&D Systems; not shown: Fc of the bought chimera
# [14] = target: T16, rHuman ErbB2/Fc Chimera, CF (human, UniProt P04626 23-652); assay: as above
# T16 construct: Bought from R&D Systems; also called human epidermal growth factor 2 receptor; not shown: Fc of the bought chimera
# [15] = target: T2, rHuman Erythropoietin R/Fc Chimera, CF; assay: as above
# [16] = target: T17, rHuman IGF-1 sR, (IGF-1 sR), CF (human, UniProt P08069 31-932); assay: as above
# T17 construct: Bought from R&D Systems; also called insulin-like growth factor-1 soluble receptor
# [17] = target: T18, rHuman EGF R/Fc Chimera, CF (human, UniProt P00533 25-645); assay: as above
# T18 construct: Bought from R&D Systems; also called epidermal growth factor receptor; not shown: Fc of the bought chimera
# T14 sequence (P08581 25-932, change not shown): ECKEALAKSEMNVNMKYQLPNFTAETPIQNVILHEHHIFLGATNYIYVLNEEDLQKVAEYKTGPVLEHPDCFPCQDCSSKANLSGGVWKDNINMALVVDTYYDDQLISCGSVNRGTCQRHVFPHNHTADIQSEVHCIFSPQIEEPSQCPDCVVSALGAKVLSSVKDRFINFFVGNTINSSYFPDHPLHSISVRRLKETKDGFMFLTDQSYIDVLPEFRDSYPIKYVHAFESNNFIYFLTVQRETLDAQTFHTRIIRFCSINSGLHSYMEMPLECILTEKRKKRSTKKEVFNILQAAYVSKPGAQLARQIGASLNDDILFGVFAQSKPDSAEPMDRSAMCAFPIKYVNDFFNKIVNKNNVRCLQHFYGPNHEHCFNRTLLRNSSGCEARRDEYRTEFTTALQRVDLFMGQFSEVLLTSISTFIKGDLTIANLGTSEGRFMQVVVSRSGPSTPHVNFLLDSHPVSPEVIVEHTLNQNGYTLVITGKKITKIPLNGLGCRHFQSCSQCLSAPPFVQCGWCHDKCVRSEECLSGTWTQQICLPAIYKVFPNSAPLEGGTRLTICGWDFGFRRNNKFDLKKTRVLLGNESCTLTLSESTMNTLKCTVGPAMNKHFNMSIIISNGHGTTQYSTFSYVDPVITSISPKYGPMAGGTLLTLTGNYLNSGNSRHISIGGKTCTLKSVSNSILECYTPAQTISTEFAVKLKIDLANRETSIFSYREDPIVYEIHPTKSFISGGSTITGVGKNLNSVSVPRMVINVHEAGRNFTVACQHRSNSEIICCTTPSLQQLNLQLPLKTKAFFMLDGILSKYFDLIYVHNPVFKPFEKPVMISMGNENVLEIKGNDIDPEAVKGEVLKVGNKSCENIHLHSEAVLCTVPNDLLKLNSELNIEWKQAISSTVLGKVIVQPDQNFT
# T7 sequence (P08581 25-932, change not shown): as above
ECL signal [1],ECL signal [2],ECL signal [3],ECL signal [4],ECL signal [5],ECL signal [6],ECL signal [7],ECL signal [8],ECL signal [9],ECL signal [10],ECL signal [11],ECL signal (Recombinant Human DLL4),ECL signal [12],ECL signal [13],ECL signal [14],ECL signal [15],ECL signal [16],ECL signal [17],Binder
169000,340,378,362,369,468,383,362,353,,,,,,,,,,"Fab VH1-46_IGHD6-6*01_IGHJ1*01 S102A/S103P/S104F/H111F N52A & L6_IGKJ1*01 (Fab, V domains shown, Fab (CH1 with His6/Flag tags from Plasmid A, kappa CL from Plasmid C); also called APFF N52A) VH: QVQLVQSGAEVKKPGASVKVSCKASGYTFTSYYMHWVRQAPGQGLEWMGIIAPSGGSTSYAQKFQGRVTMTRDTSTSTVYMELSSLRSEDTAVYYCAREEYAPFSAEYFQFWGQGTLVTVSS VL: not shown"
,,,,,,,,,491,324,183000,333,436,334,494,360,360,"Fab VH1-46_IGHD6-6*01_IGHJ1*01 S102A/S103P/S104F/H111F (APFF) & L6_IGKJ1*01 S28G (Fab, V domains shown, Fab made in E. coli; the variable domains were cloned into Plasmid A (CH1, His and Flag tags) and Plasmid C (kappa CL); also called APFF / S28G) VH: QVQLVQSGAEVKKPGASVKVSCKASGYTFTSYYMHWVRQAPGQGLEWMGIINPSGGSTSYAQKFQGRVTMTRDTSTSTVYMELSSLRSEDTAVYYCAREEYAPFSAEYFQFWGQGTLVTVSS VL: EIVLTQSPATLSLSPGERATLSCRASQGVSSYLAWYQQKPGQAPRLLIYDASNRATGIPARFSGSGSGTDFTLTISSLEPEDFAVYYCQQRSNWPPWTFGQGTKVEIKR"
47400,384,320,318,304,329,289,271,294,,,,,,,,,,"Fab VH1-46_IGHD6-6*01_IGHJ1*01 S102A/S103P/S104F/H111F T58A & L6_IGKJ1*01 (Fab, V domains shown, Fab (CH1 with His6/Flag tags from Plasmid A, kappa CL from Plasmid C); also called APFF T58A) VH: QVQLVQSGAEVKKPGASVKVSCKASGYTFTSYYMHWVRQAPGQGLEWMGIINPSGGSASYAQKFQGRVTMTRDTSTSTVYMELSSLRSEDTAVYYCAREEYAPFSAEYFQFWGQGTLVTVSS VL: not shown"
151000,439,203,378,337,427,393,374,390,,,,,,,,,,"Fab VH1-46_IGHD6-6*01_IGHJ1*01 S102A/S103P/S104F/H111F P53A & L6_IGKJ1*01 (Fab, V domains shown, Fab (CH1 with His6/Flag tags from Plasmid A, kappa CL from Plasmid C); also called APFF P53A) VH: QVQLVQSGAEVKKPGASVKVSCKASGYTFTSYYMHWVRQAPGQGLEWMGIINASGGSTSYAQKFQGRVTMTRDTSTSTVYMELSSLRSEDTAVYYCAREEYAPFSAEYFQFWGQGTLVTVSS VL: not shown"
,,,,,,,,,521,440,157000,377,502,348,424,378,351,"Fab VH1-46_IGHD6-6*01_IGHJ1*01 S102A/S103P/S104F/H111F (APFF) & L6_IGKJ1*01 S28A (Fab, V domains shown, Fab made in E. coli; the variable domains were cloned into Plasmid A (CH1, His and Flag tags) and Plasmid C (kappa CL); also called APFF / S28A) VH: QVQLVQSGAEVKKPGASVKVSCKASGYTFTSYYMHWVRQAPGQGLEWMGIINPSGGSTSYAQKFQGRVTMTRDTSTSTVYMELSSLRSEDTAVYYCAREEYAPFSAEYFQFWGQGTLVTVSS VL: EIVLTQSPATLSLSPGERATLSCRASQAVSSYLAWYQQKPGQAPRLLIYDASNRATGIPARFSGSGSGTDFTLTISSLEPEDFAVYYCQQRSNWPPWTFGQGTKVEIKR"
,,,,,,,,,368,,182000,432,,333,,386,406,"Fab VH1-46_IGHD6-6*01_IGHJ1*01 S102A/S103P/S104F/H111F (APFF) & L6_IGKJ1*01 (Fab, V domains shown, Fab made in E. coli; the variable domains were cloned into Plasmid A (CH1, His and Flag tags) and Plasmid C (kappa CL); also called APFF / parent; H:APFF & L:wt) VH: QVQLVQSGAEVKKPGASVKVSCKASGYTFTSYYMHWVRQAPGQGLEWMGIINPSGGSTSYAQKFQGRVTMTRDTSTSTVYMELSSLRSEDTAVYYCAREEYAPFSAEYFQFWGQGTLVTVSS VL: not shown"
112000,302,304,439,388,477,365,417,232,,,,,,,,,,"Fab VH1-46_IGHD6-6*01_IGHJ1*01 S102A/S103P/S104F/H111F S57A & L6_IGKJ1*01 (Fab, V domains shown, Fab (CH1 with His6/Flag tags from Plasmid A, kappa CL from Plasmid C); also called APFF S57A) VH: QVQLVQSGAEVKKPGASVKVSCKASGYTFTSYYMHWVRQAPGQGLEWMGIINPSGGATSYAQKFQGRVTMTRDTSTSTVYMELSSLRSEDTAVYYCAREEYAPFSAEYFQFWGQGTLVTVSS VL: not shown"
